Experimental data taken from publication PMC2211816.

Target: GST-KLF2 (UniProt Q60843 1-354)
Test: EMSA

Chain of GST-KLF2 (Q60843 whole entry): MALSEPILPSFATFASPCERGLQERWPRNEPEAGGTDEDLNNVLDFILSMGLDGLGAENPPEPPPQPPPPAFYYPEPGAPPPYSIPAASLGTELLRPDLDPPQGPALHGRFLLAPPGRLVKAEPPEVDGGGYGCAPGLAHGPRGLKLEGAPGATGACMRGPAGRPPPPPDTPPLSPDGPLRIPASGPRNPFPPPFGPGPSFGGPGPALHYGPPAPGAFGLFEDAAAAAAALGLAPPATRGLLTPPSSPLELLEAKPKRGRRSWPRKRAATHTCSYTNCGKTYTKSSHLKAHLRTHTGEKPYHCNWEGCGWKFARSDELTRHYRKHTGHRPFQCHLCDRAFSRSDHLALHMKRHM

B1: eNOS promoter KLF site (-644 to -652) probe (dsDNA)
DNA 1: GTCATGGGGGTGTGGGGGTTCCAGGAAAT
DNA 2: ATTTCCTGGAACCCCCACACCCCCATGAC
- binding result: binds
